In the RNAGym collection of RNA variant scans (doi:10.7554/elife.80360):

B1: HDV Ribozyme (parent)
chain: GGCCGGCAUGGUCCCAGCCUCCUCGCUGGCGCCGGCUGGGCAACAUUCCGAGGGGACCGUCCCCUCGGUAAUGGCGAAUGGGACCCA

Variants of: B1
Experiment: self-cleavage, relative activity (ratio to wild type); higher = more cleavage; co-transcriptional

Point of comparison: GGCCGGCAUGGUCCCAGCCUCUUUGCUGGCGCCGGCUGGGCAACAUUCCGAGGGGACCGUCCCCUCGGUAAUGGCGAAUGGGACCCA [C22U C24U], self-cleavage 0.22. Against it:
- GGCCGGCAUGGUCCCAGCCUCCUCGCUGGCGCCGGCUGGGCAACAUUCCGAGGGGACCGUCCCCUCGGUAAGGGCGCAUGGGACCCA [U72G A77C] — lower, 0.128
- GGCCGGAAUGUUCCCAGCCUCCUCGCUGGCGCCGGCUGGGCAACAUUCCGAGGGGACCGUCCCCUCGGUAAUGGCGAAUGGGACCCA [C7A G11U] — lower, 0.095
- GGCCGGCAUGGUCCCAGCCUCCUCGCCGGCGCCGGCUGGGCAACAUUCCGAGGGGACCGUCCCCUCGGUAAUGGCGAAUGUGACCCA [U27C G81U] — higher, 0.475
- GGCCGGCAUGGUCCCAGCCUCCUCGCUGGCGCCGGCUGGGUAACAUUCCGAUGGGACCGUCCCCUCGGUAAUGGCGAAUGGGACCCA [C41U G52U] — higher, 0.868
- AGCCGGCAUGGUCCCAGCCUCCUCGCUGGCGCCGGCUGGGCAACAUUCCGAGGGUACCGUCCCCUCGGUAAUGGCGAAUGGGACCCA [G1A G55U] — higher, 0.309
- GGCCGGCAUGUUCCCAGCCUCCUCGCUGGCGCCGGCUGGGCAAGAUUCCGAGGGGACCGUCCCCUCGGUAAUGGCGAAUGGGACCCA [G11U C44G] — lower, 0.0723
- GGCCGGCAUGGUCCCAGCCUCCUCGCUGGCGCCAGCUGGGCAACAUUCCGAGGGGACCGUCCCCUCGGCAAUGGCGAAUGGGACCCA [G34A U69C] — higher, 0.291
- GGCCGGAAUGGUCCCAGCCUCUUCGCUGGCGCCGGCUGGGCAACAUUCCGAGGGGACCGUCCCCUCGGUAAUGGCGAAUGGGACCCA [C7A C22U] — lower, 0
- GGCCGGCAUGGUCCCAGCCUCCUCGCUGGCGCCGGCUGGGCAACAUUCCGAGGGGACCGUGCCCUCGGUAAUGGGGAAUGGGACCCA [C61G C75G] — lower, 0.113
- GGCCGGCACGGUCCGAGCCUCCUCGCUGGCGCCGGCUGGGCAACAUUCCGAGGGGACCGUCCCCUCGGUAAUGGCGAAUGGGACCCA [U9C C15G] — lower, 0.104
- GGCCGGCAUGGUCCCAGCCUCCUCGCUGGCGCCAGCUGGGCAACAUUCCGAGGGGACGGUCCCCUCGGUAAUGGCGAAUGGGACCCA [G34A C58G] — lower, 0.177
- GGCCGACAUGAUCCCAGCCUCCUCGCUGGCGCCGGCUGGGCAACAUUCCGAGGGGACCGUCCCCUCGGUAAUGGCGAAUGGGACCCA [G6A G11A] — lower, 0.128
- GGCCGGCAUGGUCCUAGCCUCGUCGCUGGCGCCGGCUGGGCAACAUUCCGAGGGGACCGUCCCCUCGGUAAUGGCGAAUGGGACCCA [C15U C22G] — lower, 0.147
- GGCCGGCAUGGUCCCAGCCCCCUCGCUGGGGCCGGCUGGGCAACAUUCCGAGGGGACCGUCCCCUCGGUAAUGGCGAAUGGGACCCA [U20C C30G] — higher, 0.447
- GGCCGGCAUGGCCCCAGCCUCCUCGCUGGCGCCGGCUGGGCAACAUUCCGAGGGGACCGUCCCCUCAGUAAUGGCGAAUGGGACCCA [U12C G67A] — higher, 0.229
- GGCCGGCACGGUCCCAGCCUCCUCGCUGGCGCCGGCUGGGCAACAUUCCGAGGGGACCGUCCCCUCGGUAAUGGCGAAUGGGACCCU [U9C A87U] — higher, 1.06
- GGCCGGCAUGGUCCCAGCCUCCUCGCUGGCGCGGGCUGGGCAACAUUCCGAGGGGACCGUCCCCUCGGUAAUGGCGAAUGGUACCCA [C33G G82U] — lower, 0
- GGCCGGCAUGGUCCCAGCCUCCUCGUUGGCGCUGGCUGGGCAACAUUCCGAGGGGACCGUCCCCUCGGUAAUGGCGAAUGGGACCCA [C26U C33U] — higher, 0.872
- GGCCGGCAUGGUCCCAGCCUCCUCGCUCGCGCCGGCUGGGCAACAUUCCGAGGGGACCGUCCCCUCGGUACUGGCGAAUGGGACCCA [G28C A71C] — lower, 0.0475
- GGCCGGCAUGGUCCCAGCAGCCUCGCUGGCGCCGGCUGGGCAACAUUCCGAGGGGACCGUCCCCUCGGUAAUGGCGAAUGGGACCCA [C19A U20G] — lower, 0.217
- GGCCGGCAUGGUCCCAGCCUCCUCGCUGGCGCCGGCUGGGCAACAUUCCGAGGGGACCGUCCCCUCGGUUAUGGCGACUGGGACCCA [A70U A78C] — lower, 0.0941
- GGCCGGCAUCGUCCCAGCCUCCUCGCUGGCGCAGGCUGGGCAACAUUCCGAGGGGACCGUCCCCUCGGUAAUGGCGAAUGGGACCCA [G10C C33A] — lower, 0.213
- GGCCGGCAUGGUCCCAGCCUCCUCGCUGGCGCCGGCUGGGCAACAUUCCGAAGGGACCGUCCCCUCGGUAAUGGCAAAUGGGACCCA [G52A G76A] — higher, 1.05
- GGCCGGCAUGGUCCCAGCCUCCUCGCUGGCGCCGGCUGGGCGACAUUCCGAGGGGACCGUCCCCUCGGUAAUGGCAAAUGGGACCCA [A42G G76A] — higher, 0.631
- GGCCGGCAUGGUCCCAGCCUCCUCGCUGGCGCCGGCUGGGCAACAUUCCGAGGGGGCCGUCCCCUCGGUAAAGGCGAAUGGGACCCA [A56G U72A] — higher, 0.643
- GGCCGGCAUGGUCCCAGCCGCCUCGCUGGCGCCGGCUGGGCAACAUUCCGAGGGGACCGUCCCCUCGGUUAUGGCGAAUGGGACCCA [U20G A70U] — lower, 0.196
- GGCCGGCAUGGUCCCAGCCUCCUCGCUGGCGCCGGCUGGGCAACAAUCCGAGGGGACCGGCCCCUCGGUAAUGGCGAAUGGGACCCA [U46A U60G] — higher, 0.939
- GGCCGGCAUGGUCCCAGCCUCCUCGCUGGCGCCGGCUGGGAAACAUUCCGAGGGGACCGUCCGCUCGGUAAUGGCGAAUGGGACCCA [C41A C63G] — higher, 0.623
- GGCCGGCAUGGUCCCAGCCUCCUCGCUGGCGCCGGCUGGGCAACAUUCCGAGGUGACCGUCCCCUCGGUCAUGGCGAAUGGGACCCA [G54U A70C] — higher, 0.515
- GGCCGGCAUGGACCCAGCCUCCUCGCUGGCGUCGGCUGGGCAACAUUCCGAGGGGACCGUCCCCUCGGUAAUGGCGAAUGGGACCCA [U12A C32U] — lower, 0.0723
- GGCCGGGAUGGUCCCAGCCUCCUCGUUGGCGCCGGCUGGGCAACAUUCCGAGGGGACCGUCCCCUCGGUAAUGGCGAAUGGGACCCA [C7G C26U] — higher, 0.356
- GGCCGGCAUGGUCCCAGCCUCCUCGCUGGCGCCGGCUGGGCCACAUUCCGAGGGGACCGUCCCCUCGGUAAUGGCGAGUGGGACCCA [A42C A78G] — higher, 0.317
- GGCCGGCAUGGUCCCAGCCUACUCGCUGGCGCCGGCUGGGCUACAUUCCGAGGGGACCGUCCCCUCGGUAAUGGCGAAUGGGACCCA [C21A A42U] — lower, 0.208
- GGCCGGGCUGGUCCCAGCCUCCUCGCUGGCGCCGGCUGGGCAACAUUCCGAGGGGACCGUCCCCUCGGUAAUGGCGAAUGGGACCCA [C7G A8C] — lower, 0
- GGCCGGCAUGGUCCCAGCCUCCUCGCUGGCGCCGGCUGGGCAACAUUCCGAGGUGACCGUCCCCUCGGUAAUGGCGAAUGGGACCAA [G54U C86A] — higher, 0.799
- GGCCGGCAUGGUCCCAGCCUCCUCGCUGGCGCCGGAUGGGCAACAUUCCGAGGGGACCGUCCCCUCGGGAAUGGCGAAUGGGACCCA [C36A U69G] — lower, 0.161
- GGCCGGCAUGGUCCCAGACUCCUCGCUGGCGCCGGCUGGGCAACAUUCCGAGGGGACCGUCCCCUCGGUAAUGGCGAAUGGAACCCA [C18A G82A] — lower, 0.149
- GGCCGGCAUGGUCCCAGCCUCCUCGCUGGCGCCGGCUGGGCAACAUUCCGAGGGGACGGUCCCCUCGGUAAUUGCGAAUGGGACCCA [C58G G73U] — lower, 0.217
- GGCCGGCAUGGUCCCAGCCUCCUCGCUGGCGCCGGCUGGGCAACAUGCCGAGGGGACCGUCGCCUCGGUAAUGGCGAAUGGGACCCA [U47G C62G] — higher, 0.534
- GGCCGGCAUGGUCCCAGCCUCCUCGCUGGCGCGGGCUGGGCAACAUUCCGAGGGGACCGUCCCCUCGGUAAUGGCGACUGGGACCCA [C33G A78C] — lower, 0
- GGCCGGCAUGGUCCCAGCCUCCUCGCUGGCGCCGGCUGGGCAACAUUCCGAGGGGACCAUCCCCUCGGUAAUGGCGAACGGGACCCA [G59A U79C] — higher, 0.518
- GGCCGGCAUGGUCCCAGCCUCCUCGCUGGCGCCGGCUAGGCAACAUUCCGAGGGGACCGUCCCCUCGGUAAUGGCGUAUGGGACCCA [G38A A77U] — lower, 0.0845
- GACCGGCAUGGUCCCAGCCUCCUCGCUGGCGCCGGCUGGGCAACAUUCCGAGGGGACCGUCCGCUCGGUAAUGGCGAAUGGGACCCA [G2A C63G] — lower, 0.0804
- GGCCGGCAUGGUCCCAGCCUUCUCGCUGGCGCCGGCUGGGCAACAUUCCGAGGGGACCGUCCCCUCGGGAAUGGCGAAUGGGACCCA [C21U U69G] — lower, 0.19
- GGCCGGCAUGGUCCCAGGCUCCUCGCUGGCGCCGGCUGGGCAACAUUCCGAGGGGACCGUCCCCUCGGUAAUGGCGAAUGGGACUCA [C18G C85U] — lower, 0.095
- GUCCGGCAUGGUCCCAGCCUCCUCGCUGGCGCCGGCUGGGCAACAUUCCCAGGGGACCGUCCCCUCGGUAAUGGCGAAUGGGACCCA [G2U G50C] — lower, 0.0179
- GGCCGCCAUGGUCCCAGCCUCCUCGCUGGCGCCGGCUGGGCAACAUUCCGAGGGGACCGUCCCCUCGGUAAUGGCGAUUGGGACCCA [G6C A78U] — lower, 0
- GGCCGGCAUGGUCCCAGCCUCCUCGCUGGCCCCGGCUGGGCAACAUUCCCAGGGGACCGUCCCCUCGGUAAUGGCGAAUGGGACCCA [G31C G50C] — higher, 0.511
- GGCCGUCAUGGUCCCAGCCUCCUCGCUGGCACCGGCUGGGCAACAUUCCGAGGGGACCGUCCCCUCGGUAAUGGCGAAUGGGACCCA [G6U G31A] — higher, 0.282
- GGCCGGCAUGGUCCCAGCCUCCUCGCUAGCGCCGGCUGGGCAACAUUCCGAGGGGACCGUCUCCUCGGUAAUGGCGAAUGGGACCCA [G28A C62U] — lower, 0.134
- GGCCGGCAUGGUCCCAGACUCCUCGCUGGAGCCGGCUGGGCAACAUUCCGAGGGGACCGUCCCCUCGGUAAUGGCGAAUGGGACCCA [C18A C30A] — lower, 0.141
- GGCCGGCAUGGUCGCAGCCUCCUGGCUGGCGCCGGCUGGGCAACAUUCCGAGGGGACCGUCCCCUCGGUAAUGGCGAAUGGGACCCA [C14G C24G] — lower, 0
- GGCCGGGAUCGUCCCAGCCUCCUCGCUGGCGCCGGCUGGGCAACAUUCCGAGGGGACCGUCCCCUCGGUAAUGGCGAAUGGGACCCA [C7G G10C] — higher, 0.222
- GGCCGGCAUGGUCCCAGCCUCCUCGCUGGCGCCGGCUGGGCAACAUUCCCAGUGGACCGUCCCCUCGGUAAUGGCGAAUGGGACCCA [G50C G53U] — higher, 0.338
- GGCCGGCAUGGUCCCAGCCUCCUCGCUGGCGCCGGCUGGGCAACAUUCCGGGGGGACGGUCCCCUCGGUAAUGGCGAAUGGGACCCA [A51G C58G] — higher, 0.969
- GGCCUGCACGGUCCCAGCCUCCUCGCUGGCGCCGGCUGGGCAACAUUCCGAGGGGACCGUCCCCUCGGUAAUGGCGAAUGGGACCCA [G5U U9C] — higher, 0.332
- GGCCGGCAUGGUCCCAGCCUCCUCGCUGGCGCCGGCUGAGCAACAUUCCGAGGGGACCGUCCCCUCGGUAAUGGCGUAUGGGACCCA [G39A A77U] — lower, 0.176
- GGCCGGGAUGGUCCCAGCCUCCUCGCGGGCGCCGGCUGGGCAACAUUCCGAGGGGACCGUCCCCUCGGUAAUGGCGAAUGGGACCCA [C7G U27G] — higher, 0.256
- GGCCGGCAUGGUCCCAGCCUCCUCGCUGGCGCCGGCUGGGCAACAUUCCGAGGGGACCGUCACCUCGAUAAUGGCGAAUGGGACCCA [C62A G68A] — higher, 0.842
- GGCCGGCAUGGACCCAGCCUCCUCGCUGGCGCCGGCUGGGCAACAUUCCGAGGCGACCGUCCCCUCGGUAAUGGCGAAUGGGACCCA [U12A G54C] — higher, 0.269
- GGCCGGCAUGGUCCCACCCUCCUCGCUGGCGCCGGCUGGGCAACAUUCCGAGGGGACCGCCCCCUCGGUAAUGGCGAAUGGGACCCA [G17C U60C] — lower, 0.208
- GGCCGGCAUGGUCCCAGCCUCCUCGCUGGCCCCGGCUGGGCAACAUUCCGAGGGGACCGUCGCCUCGGUAAUGGCGAAUGGGACCCA [G31C C62G] — lower, 0.166
- GGCCGGCAUGGUCCCAGCCUCCUCGCUGGCGCGGGCUGGGCAACAUUCCGAGGGGACCGUCCCCUCGGUAAUGCCGAAUGGGACCCA [C33G G74C] — higher, 0.237
